The text below walks through data of EP3409295A1 (priority 2016, dated 2017).

The structures appear in SMILES notation. Like-named read-outs stand apart in the source and are kept apart here.

For series [1], the system named is ICR mice. The following applies: mouse, in vivo, iv.
The subject of series [2] is ICR mice. Kind of series: Tail flick test (heat radiation pain tester). Type of series: in vivo. The conditions noted are these: tail vein, morphine 5 mg/kg, other doses as in the writhing test. In general terms: Thermal pain tests record how soon the animal reacts.
Series [3] has as its system rats. The following applies: rat, in vivo.
For series [4], the system named is ICR mice. The conditions noted are these: mouse, in vivo, iv, 10 mg/kg.
Series [5] is described as follows: in vivo. The following applies: female, SD, rat, iv, 5 mg/kg.
The conditions of series [6]: SD rats.
Setting [7] is: intravenous administration, 10 mg/kg.

In the case of `COc1ccc2c3c1O[C@H]1[C@@H](O)C=C[C@H]4[C@@H](C2)N(C)CC[C@@]341` [Codeine, codeine], in series [1] (30 mg/kg), the “Number of Writhing” value stood at 13.4±3.1.

As to `CN1CC[C@]23c4c5ccc(O)c4O[C@H]2[C@@H](O)C=C[C@H]3[C@H]1C5` [Morphine, morphine], the “Number of Writhing” value in series [1] (5 mg/kg) turned out to be 10.2±2.1. Also, the Heat pain value in series [2] (0 hr (base value before administration)) came out at 14.0 ± 2.2 s; in series [2] (0.25 hr after administration), 22.7 ± 5.1 s; in series [2] (1hr after administration), 42.4 ± 5.1 s; in series [2] (2 hr after administration), 29.0 ± 4.7 s; in series [2] (6 hr after administration), 13.5 ± 1.2 s; in series [2] (24 hr after administration), 13.8 ± 1.5 s. The compound further came in with a Nose-pokes in series [3] of 24.0±2.2.

As to `COc1ccc2c3c1O[C@H]1C(=O)CC[C@@]4(O)[C@@H](C2)N(C)CC[C@]314` [Oxycodone, oxycodone], in series [1] (5 mg/kg), the “Number of Writhing” value was 9.9±3.2.

With `CN1CC[C@]23c4c5ccc(O)c4O[C@H]2[C@@H](OCCOCCOCCOCCOCCOCCO[C@H]2C=C[C@H]4[C@H]6Cc7ccc(O)c8c7[C@@]4(CCN6C)[C@H]2O8)C=C[C@H]3[C@H]1C5` [α-6-O-PEG6-(morphine)2], the “Number of Writhing” value in series [4] is 24.3±3.4. In series [5], this compound registered a level at 10 min of 1200 ng/mL, a level at 1 h of 123 ng/mL, a level at 3 h of 72 ng/mL and a tissue level at time at 10 min of 163 ng/g. In series [5], this compound came in with a tissue level at time at 1 h of 133 ng/g and a tissue level at time at 3 h of 111 ng/g. Further, in series [6] (setting [7]), the AUCINF came to 158 ng·h/mL, the AUClast was determined as 144 ng·h/mL, the CL is 204 mL/min/k g and the MRTINF is 3.22 h. Also, in series [6] (setting [7]), the T1/2 was 3.42 h, the volume of distribution (Vss) was 38.6 L/kg and the Vz is 57.7 L/kg. The F in series [6] (oral 50 mg/kg versus intravenous 10 mg/kg) is 21.2%. In series [6] (oral administration, 50 mg/kg), this compound displayed an AUCINF of 84 ng·h/mL, an AUClast of 73 ng·h/mL, a Cmax of 54 and a T1/2 of 4.8 h. The Tmax in series [6] (oral administration, 50 mg/kg) was 3 h.

By Vss is commonly meant a proportionality between amount in the body and measured concentration, not a real space. A higher Vss goes with extensive tissue distribution. The term Vz denotes the apparent volume that relates the amount in the body to the concentration in plasma or blood. One may read the Tmax as the time from dosing to the highest level.
